From patent US20180185450A1 (Sanofi, published 2018)
Like-named read-outs stand apart in the source and are kept apart here. Numbered stars: 1 amine (or outer) side, 2 acyl side, 3 side chain; on linkers, the order of the positions; unused ones are H or OH. Square brackets hold non-standard residues; d marks the D form. Side chains are listed from the residue outwards. Ends that are not written are not given here. γGlu = O=C(O)[C@H](CCC(=O)[*:2])N[*:1]; x53 = not defined here; x70 = not defined here; Aib = CC(C)(N)C(=O)O

Columns and labels:
Assay in all cases: cell-based or functional assay
[1] = biological target: T1, human GLP-1 receptor (human, UniProt P43220 24-463)
[2] = biological target: T2, human glucagon receptor (human, UniProt P47871 26-477)
[3] = biological target: T2, human glucagon receptor; remark: listed apart in the source
[4] = biological target: T1, human GLP-1 receptor; remark: listed apart in the source

T2 sequence (P47871 26-477): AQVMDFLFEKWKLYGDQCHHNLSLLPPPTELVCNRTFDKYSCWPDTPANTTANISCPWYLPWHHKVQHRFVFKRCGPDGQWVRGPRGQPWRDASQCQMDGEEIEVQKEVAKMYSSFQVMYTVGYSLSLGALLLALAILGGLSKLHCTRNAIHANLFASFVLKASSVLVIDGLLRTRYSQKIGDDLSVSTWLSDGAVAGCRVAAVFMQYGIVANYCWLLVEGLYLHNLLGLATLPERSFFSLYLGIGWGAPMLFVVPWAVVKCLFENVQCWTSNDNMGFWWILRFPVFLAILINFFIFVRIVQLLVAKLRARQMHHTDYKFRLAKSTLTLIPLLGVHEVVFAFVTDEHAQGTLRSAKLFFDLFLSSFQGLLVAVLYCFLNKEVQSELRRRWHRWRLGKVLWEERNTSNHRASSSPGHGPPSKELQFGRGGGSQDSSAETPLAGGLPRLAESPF

Binder | EC50 hGLP-1R (cAMP) [1] [nM] | EC50 hGlucagon-R (cAMP) [2] [nM] | EC50 hGlucagon-R (cAMP) [3] [nM] | EC50 hGLP-1R (cAMP) [4] [nM]
H[Aib]QGTFTSDLSKQK([γGlu-x53])DSKAAQDFIEWLKAGGPSSGAPPPS-NH2 (reading uncertain) [SEQ ID NO: 31] | 0.0017 | 0.0093 | – | –
HXQGTFTSDLSKQKEEEAAKLFIEWLKAGGPSSGAPPPS (dSer at 2; K(γE-x53) at 14; C-terminal NH2) [SEQ ID NO: 19] | 0.0019 | 0.104 | – | –
HXQGTFTSDLSKQKESKAAQLFIEWLKAGGPSSGAPPPS (dSer at 2; K(γE-x53) at 14; C-terminal NH2) [SEQ ID NO: 29] | 0.0059 | 0.0879 | – | –
HXQGTFTSDLSKQKESKAAQLFIEWLKAGGPSSGAPPPS (dSer at 2; K(γE-x70) at 14; C-terminal NH2) [SEQ ID NO: 27] | 0.0077 | 0.0251 | – | –
HXQGTFTSDLSKQKEEKKAKLFIEWLKAGGPSSGAPPPS (dSer at 2; K(γE-x53) at 14; C-terminal NH2) [SEQ ID NO: 23] | 0.0056 | 0.126 | – | –
HXQGTFTSDLSKQKESRAAXLFIEWLKAGGPSSGAPPPS (dSer at 2; K(γE-x53) at 14; Aib at 20; C-terminal NH2) [SEQ ID NO: 46] | 0.0032 | 0.0251 | – | –
HXQGTFTSDLSKQKESQAAQEFIEWLKAGGPSSGAPPPS (dSer at 2; K(γE-x53) at 14; C-terminal NH2) [SEQ ID NO: 37] | 0.0015 | 0.0129 | – | –
HXQGTFTSDLSKQKESEAAQLFIEWLKAGGPSSGAPPPS (dSer at 2; K(γE-x53) at 14; C-terminal NH2) [SEQ ID NO: 21] | 0.0038 | 0.144 | – | –
HXQGTFTSDLSKQKESKAAQEFIEWLKAGGPSSGAPPPS (dSer at 2; K(γE-x53) at 14; C-terminal NH2) [SEQ ID NO: 28] | 0.0055 | 0.0126 | – | –
H[Aib]QGTFTSDLSKQK([γGlu-x53])ESQAAQEFIEWLKAGGPSSGAPPPS-NH2 (reading uncertain) [SEQ ID NO: 38] | 0.0029 | 0.0531 | – | –
H[Aib]QGTFTSDLSKQK(x53)ESQAAQDFIEWLKAGGPSSGAPPPS-NH2 (reading uncertain) [SEQ ID NO: 43] | 0.0041 | 0.443 | – | –
H[Aib]QGTFTSDLSKQK([γGlu-x53])ESQAAQDFIEWLKAGGPSSGAPPPS-NH2 (reading uncertain) [SEQ ID NO: 36] | 0.0027 | 0.0459 | – | –
H[Aib]QGTFTSDLSKQK(x53)ESRRAQDFIEWLKAGGPSSGAPPPS-NH2 (reading uncertain) [SEQ ID NO: 5] | 0.011 | 0.109 | – | –
H[Aib]QGTFTSDLSKQK([γGlu-x70])ESQAAQDFIEWLKAGGPSSGAPPPS-NH2 (reading uncertain) [SEQ ID NO: 41] | 0.0033 | 0.0207 | – | –
H[Aib]QGTFTSDLSKQK([γGlu-x53])ESKAAQDFIEWLKAGGPSSGAPPPS-NH2 (reading uncertain) [SEQ ID NO: 25] | 0.0042 | 0.0406 | – | –
HXQGTFTSDLSKQKDSRRAQDFIEWLKNGGPSSGAPPPS (dSer at 2; K(γE-x53) at 14; C-terminal NH2) [SEQ ID NO: 97] | 0.0035 | 0.001 | 0.0012 | –
HXQGTFTSDLSKQKDSRRAQDFIEWLKNGGPSSGAPPPS (dSer at 2; C-terminal NH2) [SEQ ID NO: 183] | – | – | 0.916 | 1.02
HXQGTFTSDLSKQMDSRRAQDFIEWLKNGGPSSGAPPPS (Aib at 2; C-terminal NH2) [SEQ ID NO: 182] | – | – | 0.419 | 0.0058
HXQGTFTSDLSKQMESRRAQDFIEWLKAGGPSSGAPPPS (dSer at 2; C-terminal NH2) [SEQ ID NO: 184] | – | – | 0.991 | 0.0857
HXQGTFTSDLSKQKDEKAAQDFIEWLKAGGPSSGAPPPS (dSer at 2; K(γE-x53) at 14; C-terminal NH2) [SEQ ID NO: 22] | 0.0011 | 0.0024 | – | –

Binder | EC50 hGLP-1R (cAMP) [1] [nM] | EC50 hGlucagon-R (cAMP) [2] [nM] | EC50 hGlucagon-R (cAMP) [3] [nM] | EC50 hGLP-1R (cAMP) [4] [nM]
HXQGTFTSDLSKQKESQAAQDFIEWLKAGGPSSGAPPPS (dSer at 2; K(x53) at 14; C-terminal NH2) [SEQ ID NO: 42] | 0.0102 | 0.199 | – | –
HXQGTFTSDLSKQKDEQAAQDFIEWLKAGGPSSGAPPPS (dSer at 2; K(γE-x53) at 14; C-terminal NH2) [SEQ ID NO: 34] | 0.0015 | 0.0067 | – | –
HXQGTFTSDLSKQKESRRAQDFIEWLKAGGPSSGAPPPS (dSer at 2; K(Ac) at 14; C-terminal NH2) [SEQ ID NO: 194] | – | – | 1.29 | 0.159
HXQGTFTSDLSKQKESRAAQDFIEWLKAGGPSSGAPPPS (dSer at 2; K(γE-γE-x53) at 14; C-terminal NH2) [SEQ ID NO: 49] | 0.0011 | 0.0029 | – | –
HXQGTFTSDLSKQXDSKAAQDFIEWLKAGGPSSGAPPPS (dSer at 2; Nle at 14; C-terminal NH2) [SEQ ID NO: 192] | – | – | 0.478 | –
HXQGTFTSDLSKQKESRAAQDFIEWLKAGGPSSGAPPPS (dSer at 2; K(GABA-x53) at 14; C-terminal NH2) [SEQ ID NO: 50] | 0.0033 | 0.0111 | – | –
HXQGTFTSDLSKQKESRAAQLFIEWLKAGGPSSGAPPPS (dSer at 2; K(γE-x53) at 14; C-terminal NH2) [SEQ ID NO: 48] | 0.0059 | 0.0536 | – | –
HXQGTFTSDLSKQKESRAAQDFIEWLKAGGPSSGAPPPS (dSer at 2; K(γE-x53) at 14; C-terminal NH2) [SEQ ID NO: 44] | 0.0027 | 0.012 | – | –
HXQGTFTSDLSKQKESQAAQDFIEWLKAGGPSSGAPPPS (dSer at 2; K(γE-x53) at 14; C-terminal NH2) [SEQ ID NO: 35] | 0.0015 | 0.0142 | – | –
HXQGTFTSDLSKQKESEAAQDFIEWLKAGGPSSGAPPPS (dSer at 2; K(γE-x53) at 14; C-terminal NH2) [SEQ ID NO: 20] | 0.0038 | 0.104 | – | –
HXQGTFTSDLSKQKESKAAQDFIEWLKAGGPSSGAPPPS (dSer at 2; K(x53) at 14; C-terminal NH2) [SEQ ID NO: 32] | 0.0102 | 0.188 | – | –
HXQGTFTSDLSKQKESKAAQDFIEWLKAGGPSSGAPPPS (dSer at 2; K(γE-x70) at 14; C-terminal NH2) [SEQ ID NO: 26] | 0.0051 | 0.0054 | – | –
HXQGTFTSDLSKQMDSRRAQDFIEWLKXGGPSSGAPPPS (dSer at 2; Aib at 28; C-terminal NH2) [SEQ ID NO: 187] | – | – | 0.195 | 0.152
HXQGTFTSDLSKQKESQAAQDFIEWLKAGGPSSGAPPPS (dSer at 2; K(γE-x70) at 14; C-terminal NH2) [SEQ ID NO: 40] | 0.0026 | 0.0048 | – | –
HXQGTFTSDLSKQKESRAAQLFIEWLKAGGPSSGAPPPS (dSer at 2; K(γE-x70) at 14; C-terminal NH2) [SEQ ID NO: 45] | 0.0075 | 0.0199 | – | –
HXQGTFTSDLSKQMDSRRAQDFIEWLKKGGPSSGAPPPS (dSer at 2; C-terminal NH2) [SEQ ID NO: 186] | – | – | 0.59 | 0.102
HXQGTFTSDLSKQKESRAAQEFIEWLKAGGPSSGAPPPS (dSer at 2; K(γE-x53) at 14; C-terminal NH2) [SEQ ID NO: 47] | 0.0022 | 0.0103 | – | –
HXQGTFTSDLSKQMDSRRAQDFIEWLKRGGPSSGAPPPS (dSer at 2; C-terminal NH2) [SEQ ID NO: 185] | – | – | 0.262 | 0.0757
HXQGTFTSDLSKQKDSQAAQDFIEWLKAGGPSSGAPPPS (dSer at 2; K(γE-x53) at 14; C-terminal NH2) [SEQ ID NO: 39] | 0.0027 | 0.0076 | – | –
H[Aib]QGTFTSDLSKQK(x53)ESKAAQDFIEWLKAGGPSSGAPPPS-NH2 (reading uncertain) [SEQ ID NO: 33] | 0.0112 | 0.473 | – | –
